Laboratory results as given in paper PMC3985883 (Biochemistry, 2014).

Legend:
[1] = target: class Ia RNR small subunit (Homo sapiens) (UniProt P31350); settings: cited from earlier work
[2] = target: class Ia RNR small subunit (Escherichia coli) (UniProt P69924); settings: cited from earlier work
[3] = target: T1, Bacillus subtilis class Ib ribonucleotide reductase NrdE (α subunit) (Bacillus subtilis, UniProt P50620 1-700); test: SEC
T1 sequence (looked up): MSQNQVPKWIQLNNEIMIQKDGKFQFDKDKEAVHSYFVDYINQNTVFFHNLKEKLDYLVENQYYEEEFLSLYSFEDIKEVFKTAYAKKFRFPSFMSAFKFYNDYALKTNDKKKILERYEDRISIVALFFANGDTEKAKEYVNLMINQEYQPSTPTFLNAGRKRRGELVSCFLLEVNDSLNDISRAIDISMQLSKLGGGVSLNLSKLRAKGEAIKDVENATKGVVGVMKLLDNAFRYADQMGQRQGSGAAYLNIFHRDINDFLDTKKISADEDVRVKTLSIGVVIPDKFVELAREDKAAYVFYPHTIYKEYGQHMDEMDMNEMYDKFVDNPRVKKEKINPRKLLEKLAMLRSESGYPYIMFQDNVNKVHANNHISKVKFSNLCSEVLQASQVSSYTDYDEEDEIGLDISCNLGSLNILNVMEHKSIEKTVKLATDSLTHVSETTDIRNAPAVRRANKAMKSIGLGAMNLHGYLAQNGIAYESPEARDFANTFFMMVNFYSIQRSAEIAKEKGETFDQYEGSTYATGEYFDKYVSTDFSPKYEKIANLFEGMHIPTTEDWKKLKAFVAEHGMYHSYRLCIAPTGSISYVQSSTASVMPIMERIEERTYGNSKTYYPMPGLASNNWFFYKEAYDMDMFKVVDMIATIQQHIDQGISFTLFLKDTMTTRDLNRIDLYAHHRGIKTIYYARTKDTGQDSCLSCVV

[4] = target: the molecule itself; test: SEC
[5] = target: the molecule itself; test: AUC

Chain of class Ia RNR small subunit (Homo sapiens) (P31350 whole entry): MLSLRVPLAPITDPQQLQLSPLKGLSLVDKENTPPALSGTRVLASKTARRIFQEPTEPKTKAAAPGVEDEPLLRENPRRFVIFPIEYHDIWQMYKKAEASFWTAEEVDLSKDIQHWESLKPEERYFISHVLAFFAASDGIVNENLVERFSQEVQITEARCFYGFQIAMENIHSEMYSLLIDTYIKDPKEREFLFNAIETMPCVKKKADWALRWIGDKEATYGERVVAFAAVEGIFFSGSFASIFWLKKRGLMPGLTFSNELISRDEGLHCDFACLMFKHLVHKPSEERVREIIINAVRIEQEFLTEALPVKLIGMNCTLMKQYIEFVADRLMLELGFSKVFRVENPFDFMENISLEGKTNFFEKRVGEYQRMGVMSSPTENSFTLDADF
Chain of class Ia RNR small subunit (Escherichia coli) (P69924 2-376): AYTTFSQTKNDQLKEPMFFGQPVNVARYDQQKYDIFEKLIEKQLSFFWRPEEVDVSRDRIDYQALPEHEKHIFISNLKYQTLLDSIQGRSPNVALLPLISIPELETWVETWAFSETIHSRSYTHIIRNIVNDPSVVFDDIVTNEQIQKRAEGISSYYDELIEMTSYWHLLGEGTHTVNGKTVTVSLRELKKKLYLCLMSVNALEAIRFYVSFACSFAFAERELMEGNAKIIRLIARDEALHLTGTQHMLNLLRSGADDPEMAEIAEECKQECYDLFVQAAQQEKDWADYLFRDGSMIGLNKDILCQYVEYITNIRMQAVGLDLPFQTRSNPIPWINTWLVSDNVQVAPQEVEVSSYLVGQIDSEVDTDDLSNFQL

class Ia RNR large subunit (from UniProt P23921)
Kd [1]: 0.2 µM

class Ia RNR large subunit (from UniProt P00452)
Kd [2]: 0.2 µM

B1: Bacillus subtilis holo-Fe^III2-Y· NrdF (β subunit, diferric-tyrosyl radical cofactor) (enzyme, UniProt P50621 1-329, looked up)
chain: MTKIYDAANWSKHEDDFTQMFYNQNVKQFWLPEEIALNGDLLTWKYLGKNEQDTYMKVLAGLTLLDTEQGNTGMPIVAEHVDGHQRKAVLNFMAMMENAVHAKSYSNIFMTLAPTETINEVFEWVKQNKYLQKKAQMIVGLYKAIQKDDEISLFKAMVASVYLESFLFYSGFYYPLYFYGQGKLMQSGEIINLILRDEAIHGVYVGLLAQEIYNKQTEEKKAELREFAIDLLNQLYENELEYTEDLYDQVGLSHDVKKFIRYNANKALMNLGFDPYFEEEDINPIVLNGLNTKTKSHDFFSMKGNGYKKATVEPLKDDDFYFEDEKEQI
modifications: tyrosyl radical (about 1 Y· per β2); Fe^III2 cofactor (about 4 Fe per β2)
binding result [3]: binds
stoichiometry N [4]: 2

B2: Bacillus subtilis holo-Mn^III2-Y· NrdF (β subunit, dimanganic-tyrosyl radical cofactor) (enzyme, UniProt P50621 1-329, looked up)
chain: B1 chain
modifications: tyrosyl radical (about 1 Y· per β2); Mn^III2 cofactor (about 4 Mn per β2)
binding result [3]: binds
stoichiometry N [5]: 2
